Source: PMC9482650, “Quantitative fragmentomics allow affinity mapping of interactomes” (Nature Communications, 2022)

T1: GIPC1, O14908
T1 sequence (O14908 128-223, limits assumed, looked up): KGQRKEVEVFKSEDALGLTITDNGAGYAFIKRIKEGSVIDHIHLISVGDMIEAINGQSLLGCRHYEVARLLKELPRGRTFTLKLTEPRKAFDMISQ

T2: MAGI2_1, Q86UL8
T2 sequence (Q86UL8 12-111, limits assumed, looked up): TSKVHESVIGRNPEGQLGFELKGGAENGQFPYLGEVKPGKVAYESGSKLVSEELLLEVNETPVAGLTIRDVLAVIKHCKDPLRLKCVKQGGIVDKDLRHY

T3: MPDZ_2, O75970
T3 sequence (O75970 252-347, limits assumed, looked up): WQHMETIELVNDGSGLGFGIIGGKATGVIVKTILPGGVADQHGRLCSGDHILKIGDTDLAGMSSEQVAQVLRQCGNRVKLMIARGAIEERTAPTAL

T4: MPDZ_3, O75970
T4 sequence (O75970 372-473, limits assumed, looked up): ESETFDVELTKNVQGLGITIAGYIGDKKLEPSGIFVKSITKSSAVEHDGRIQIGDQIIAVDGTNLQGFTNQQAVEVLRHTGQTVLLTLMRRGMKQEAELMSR

T5: PDZD2_1, O15018
T5 sequence (O15018 80-192, limits assumed, looked up): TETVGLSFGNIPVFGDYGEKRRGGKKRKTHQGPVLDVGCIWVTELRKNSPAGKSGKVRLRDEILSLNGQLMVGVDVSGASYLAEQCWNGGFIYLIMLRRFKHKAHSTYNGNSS

T6: PDZD2_3, O15018
T6 sequence (O15018 581-682, limits assumed, looked up): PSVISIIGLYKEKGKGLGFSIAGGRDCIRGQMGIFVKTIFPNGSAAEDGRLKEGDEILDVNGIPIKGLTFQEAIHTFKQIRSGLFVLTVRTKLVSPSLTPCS

T7: PDZD4, Q76G19
T7 sequence (Q76G19 125-224, limits assumed, looked up): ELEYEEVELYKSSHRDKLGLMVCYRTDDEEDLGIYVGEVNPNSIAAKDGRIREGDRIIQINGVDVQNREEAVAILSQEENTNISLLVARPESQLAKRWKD

T8: PDZD7_2, Q9H5P4
T8 sequence (Q9H5P4 205-303, limits assumed, looked up): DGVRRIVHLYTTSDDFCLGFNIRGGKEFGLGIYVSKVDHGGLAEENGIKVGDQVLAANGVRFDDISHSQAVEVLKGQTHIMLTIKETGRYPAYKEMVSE

T9: PTPN4, P29074
T9 sequence (P29074 512-599, limits assumed, looked up): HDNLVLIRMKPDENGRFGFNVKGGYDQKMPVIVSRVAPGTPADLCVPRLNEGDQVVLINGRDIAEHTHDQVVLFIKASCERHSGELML

T10: SHROOM4, Q9ULL8
T10 sequence (Q9ULL8 5-102, limits assumed, looked up): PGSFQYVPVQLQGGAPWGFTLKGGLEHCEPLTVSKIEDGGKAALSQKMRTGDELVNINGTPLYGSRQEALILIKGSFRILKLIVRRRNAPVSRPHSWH

T11: TJP3_1, O95049
T11 sequence (O95049 6-103, limits assumed, looked up): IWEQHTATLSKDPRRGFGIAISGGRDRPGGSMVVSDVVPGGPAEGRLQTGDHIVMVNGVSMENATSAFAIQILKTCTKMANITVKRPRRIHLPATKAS

T12: USH1C_2, Q9Y6N9
T12 sequence (Q9Y6N9 206-303, limits assumed, looked up): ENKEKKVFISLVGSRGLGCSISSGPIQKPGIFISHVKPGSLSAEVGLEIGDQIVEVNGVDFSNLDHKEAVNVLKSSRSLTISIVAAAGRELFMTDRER

T13: USH1C_3, Q9Y6N9
T13 sequence (Q9Y6N9 447-547, limits assumed, looked up): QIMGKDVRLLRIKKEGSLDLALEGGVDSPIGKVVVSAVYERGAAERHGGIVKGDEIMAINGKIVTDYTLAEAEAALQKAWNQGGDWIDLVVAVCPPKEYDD


Legend:
Experiment in all cases: holdup assay
Set-up in all cases: key: below the threshold = too weak to quantify, mostly under pKd 3.1 to 4
Settings in all cases: plain residues with an end cap or a label only (N-terminal biotin on a linker: ttds)
AHNAK2, Q8IVF2 = molecular target: AHNAK2, Q8IVF2
GIPC1, O14908 = molecular target: T1, GIPC1, O14908
GRIP2_4, Q9C0E4 = molecular target: GRIP2_4, Q9C0E4
IL16_2, Q14005 = molecular target: IL16_2, Q14005
LMO7, Q8WWI1 = molecular target: LMO7, Q8WWI1
MAGI2_1, Q86UL8 = molecular target: T2, MAGI2_1, Q86UL8
MAGI3_5, Q5TCQ9 = molecular target: MAGI3_5, Q5TCQ9
MAGI3_6, Q5TCQ9 = molecular target: MAGI3_6, Q5TCQ9
MAGIX, Q9H6Y5 = molecular target: MAGIX, Q9H6Y5
MAST1, Q9Y2H9 = molecular target: MAST1, Q9Y2H9
MPDZ_2, O75970 = molecular target: T3, MPDZ_2, O75970
MPDZ_3, O75970 = molecular target: T4, MPDZ_3, O75970
NHERF2_1, Q15599 = molecular target: NHERF2_1, Q15599
PDZD2_1, O15018 = molecular target: T5, PDZD2_1, O15018
PDZD2_3, O15018 = molecular target: T6, PDZD2_3, O15018
PDZD4, Q76G19 = molecular target: T7, PDZD4, Q76G19
PDZD7_2, Q9H5P4 = molecular target: T8, PDZD7_2, Q9H5P4
PDZRN4_2, Q6ZMN7 = molecular target: PDZRN4_2, Q6ZMN7
PREX1_1, Q8TCU6 = molecular target: PREX1_1, Q8TCU6
PTPN4, P29074 = molecular target: T9, PTPN4, P29074
SHROOM4, Q9ULL8 = molecular target: T10, SHROOM4, Q9ULL8
TJP3_1, O95049 = molecular target: T11, TJP3_1, O95049
USH1C_2, Q9Y6N9 = molecular target: T12, USH1C_2, Q9Y6N9
USH1C_3, Q9Y6N9 = molecular target: T13, USH1C_3, Q9Y6N9

Chain of MAST1, Q9Y2H9 (Q9Y2H9 962-1065): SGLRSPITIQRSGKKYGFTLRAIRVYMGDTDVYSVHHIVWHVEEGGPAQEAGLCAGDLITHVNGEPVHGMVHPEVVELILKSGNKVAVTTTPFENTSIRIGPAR
Chain of MAGI3_6, Q5TCQ9 (Q5TCQ9 1014-1103): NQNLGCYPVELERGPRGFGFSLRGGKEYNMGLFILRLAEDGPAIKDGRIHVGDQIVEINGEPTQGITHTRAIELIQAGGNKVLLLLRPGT
Chain of MAGIX, Q9H6Y5 (Q9H6Y5 118-211): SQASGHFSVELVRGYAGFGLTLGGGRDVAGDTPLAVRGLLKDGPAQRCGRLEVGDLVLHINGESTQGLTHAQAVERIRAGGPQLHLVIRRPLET
Chain of AHNAK2, Q8IVF2 (Q8IVF2 108-193): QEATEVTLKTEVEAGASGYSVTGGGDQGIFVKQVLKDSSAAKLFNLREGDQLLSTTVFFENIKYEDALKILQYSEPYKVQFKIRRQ
Chain of NHERF2_1, Q15599 (Q15599 9-91): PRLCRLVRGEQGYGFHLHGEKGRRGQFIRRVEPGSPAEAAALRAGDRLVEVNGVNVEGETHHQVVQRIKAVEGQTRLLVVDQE
Chain of MAGI3_5, Q5TCQ9 (Q5TCQ9 847-941): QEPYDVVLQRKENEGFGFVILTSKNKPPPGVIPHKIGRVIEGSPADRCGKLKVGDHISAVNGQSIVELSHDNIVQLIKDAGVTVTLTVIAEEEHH
Chain of LMO7, Q8WWI1 (Q8WWI1 1037-1138): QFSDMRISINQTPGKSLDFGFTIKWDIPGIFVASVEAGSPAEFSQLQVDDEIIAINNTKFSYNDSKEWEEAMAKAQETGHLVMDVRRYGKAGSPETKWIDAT
Chain of PDZRN4_2, Q6ZMN7 (Q6ZMN7 389-498): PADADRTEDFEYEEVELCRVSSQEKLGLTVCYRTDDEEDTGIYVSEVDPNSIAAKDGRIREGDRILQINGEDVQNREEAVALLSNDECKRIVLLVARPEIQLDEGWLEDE
Chain of GRIP2_4, Q9C0E4 (Q9C0E4 446-548): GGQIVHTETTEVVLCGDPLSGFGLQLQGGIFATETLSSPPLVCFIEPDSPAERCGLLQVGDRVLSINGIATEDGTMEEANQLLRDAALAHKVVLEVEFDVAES
Chain of IL16_2, Q14005 (Q14005 350-450): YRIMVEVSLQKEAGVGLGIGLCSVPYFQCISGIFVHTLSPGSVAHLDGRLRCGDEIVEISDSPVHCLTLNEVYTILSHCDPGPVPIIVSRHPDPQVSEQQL
Chain of PREX1_1, Q8TCU6 (Q8TCU6 608-718): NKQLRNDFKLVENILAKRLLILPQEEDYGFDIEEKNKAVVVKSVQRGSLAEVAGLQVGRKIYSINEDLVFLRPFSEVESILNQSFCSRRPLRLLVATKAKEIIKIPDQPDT

Row | Binder | pKd (AHNAK2, Q8IVF2) | pKd (GRIP2_4, Q9C0E4) | pKd (IL16_2, Q14005) | pKd (LMO7, Q8WWI1) | pKd (MAGI2_1, Q86UL8) | pKd (MAGI3_5, Q5TCQ9) | pKd (MAGI3_6, Q5TCQ9) | pKd (MAGIX, Q9H6Y5) | pKd (MAST1, Q9Y2H9) | pKd (MPDZ_3, O75970) | pKd (NHERF2_1, Q15599) | pKd (PDZD2_1, O15018) | pKd (PDZD2_3, O15018) | pKd (PDZD4, Q76G19) | pKd (PDZD7_2, Q9H5P4) | pKd (PDZRN4_2, Q6ZMN7) | pKd (PREX1_1, Q8TCU6) | pKd (PTPN4, P29074) | pKd (SHROOM4, Q9ULL8) | pKd (TJP3_1, O95049) | further results
1 | RPLPRKVSQL [DOCK4, Q8N1I0] | below the threshold | below the threshold | below the threshold | below the threshold | below the threshold | below the threshold | below the threshold | below the threshold | 3.86 | below the threshold | below the threshold | below the threshold | below the threshold | below the threshold | below the threshold | 4.14 | below the threshold | below the threshold | below the threshold | below the threshold | pKd (GIPC1, O14908): below the threshold; pKd (MPDZ_2, O75970): below the threshold; pKd (USH1C_2, Q9Y6N9): below the threshold; pKd (USH1C_3, Q9Y6N9): below the threshold
2 | SSLQSLETSV [ATP2B4, P23634] | below the threshold | below the threshold | below the threshold | 4.5 | below the threshold | below the threshold | below the threshold | below the threshold | 5.26 | below the threshold | below the threshold | below the threshold | below the threshold | below the threshold | below the threshold | 4.24 | below the threshold | 4.88 | 4.68 | below the threshold | pKd (MPDZ_2, O75970): below the threshold; pKd (USH1C_2, Q9Y6N9): below the threshold; pKd (USH1C_3, Q9Y6N9): below the threshold
3 | QRQARSETLV [HPV59-E6, Q81964] | below the threshold | below the threshold | below the threshold | below the threshold | below the threshold | 4.62 | below the threshold | below the threshold | 4.62 | below the threshold | below the threshold | below the threshold | below the threshold | below the threshold | below the threshold | below the threshold | below the threshold | below the threshold | below the threshold | below the threshold | pKd (GIPC1, O14908): below the threshold; pKd (MPDZ_2, O75970): below the threshold; pKd (USH1C_2, Q9Y6N9): below the threshold; pKd (USH1C_3, Q9Y6N9): below the threshold
4 | RHTTSTETAV [HPV30-E6, P36809] | below the threshold | 3.66 | below the threshold | below the threshold | below the threshold | below the threshold | below the threshold | 5.35 | 4.66 | below the threshold | below the threshold | below the threshold | below the threshold | below the threshold | below the threshold | 4.48 | below the threshold | 4.72 | 4.73 | below the threshold | pKd (GIPC1, O14908): 4.7; pKd (MPDZ_2, O75970): below the threshold; pKd (USH1C_2, Q9Y6N9): below the threshold; pKd (USH1C_3, Q9Y6N9): below the threshold
5 | SGSRPSATVV [HPV73-E6, Q82005] | below the threshold | 3.55 | below the threshold | below the threshold | below the threshold | below the threshold | below the threshold | below the threshold | 3.73 | below the threshold | below the threshold | below the threshold | below the threshold | below the threshold | below the threshold | below the threshold | below the threshold | 4.65 | below the threshold | 4.21 | pKd (GIPC1, O14908): 4.64; pKd (USH1C_2, Q9Y6N9): below the threshold; pKd (USH1C_3, Q9Y6N9): below the threshold
6 | RLPKIKETTV [FRMPD4, Q14CM0] | below the threshold | below the threshold | below the threshold | 4.45 | below the threshold | below the threshold | below the threshold | below the threshold | 4.26 | below the threshold | below the threshold | below the threshold | below the threshold | below the threshold | below the threshold | 4.43 | 4.75 | 5.14 | below the threshold | below the threshold | pKd (GIPC1, O14908): 4.44; pKd (MPDZ_2, O75970): below the threshold; pKd (USH1C_2, Q9Y6N9): below the threshold; pKd (USH1C_3, Q9Y6N9): below the threshold
